Experiments:
[1] = system: ORN differentiated from spheroid cultured progenitor cells; assay: Calcium imaging assay of ORNs under odorant stimulation; type: cell-based, rat; conditions: for total calcium concentration stimulated by odor: odorant mixture
Description: To facilitate comparison with in vivo ORNs, the physiological properties of ORNs were validated using calcium imaging assays. The activity of the spheroid-cultured ORN progenitor cells was evaluated by transferring them to the laminin-coated plates, and measuring the change in fluorescence intensity by stimulating ORN activity with a mixture of odorant. In addition, the total-calcium concentration and response rate stimulated by odor were analyzed based on the results of calcium imaging.
Specifically, before performing the calcium imaging assay, the coverslip substrate was combined with a magnetic chamber (Live Cell instrument, Seoul, Korea), and the medium was replaced with KREBS Ringer's buffer containing 115 mM NaCl, 5.9 mM KCl, 2.5 mM CaCl2·2H2O, 1.2 mM MgCl2, 1.2 mM NaH2PO4, 10 mM HEPES sodium salt, and 10 mM D-glucose, and it was washed with PBS. Then, the cells were stained with fluo3-AM (life technologies, Waltham, USA). Fluorescence images of calcium markers were monitored using a confocal microscope. To stimulate the ORN, three odorants of 100 µM isovaleric acid (IVA), 2-isobutyl-3-methoxypyrazine (IBMP), and citralva, which are reported to activate the major signaling pathways of the ORN, and 100 µM of their mixture were applied to the magnetic chamber using a tubing connected to a syringe. The intracellular calcium concentration was calculated from the background corrected fluorescence ratio at 506/526 nm using a two-point calibration scheme and the equation [Ca]i=Kd(F0/Fs)(R−Rmin)/(Rmax−R).
Response rates were calculated as a ratio of the number of activated cell populations to the total number of cell populations in the confocal microscopy software.
Next, to determine the physiological properties of ORNs under single […] stimulation, the changes in intracellular calcium levels of ORNs and the changes in fluorescence intensity in cells a, b and c according to […] stimulation were monitored using 100 μM IBMP, 100 μM IVA, and 100 μM citralva.

[2] = system: rat ORN progenitor cells; assay: Spheroid culture of ORN progenitor cells on REP-coated or laminin-coated plates (spheroid formation, diameter); type: cell-based
Description: For a comparison between the culture in a vessel coated with a recombinant protein (REP, TGPG[VGRGD(VGPVPG)6]20WPC) and culture in a vessel coated with laminin in whether neural stem cells are cultured into spheroids, the rat ORN progenitor cells primary cultured in Example 1-1 above were plated on REP-coated or laminin-coated cell culture plates.
Specifically, before plating the isolated ORN progenitor cells, 96-well plates (Thermo Scientific, Waltham, USA) were coated with 100 μl of 3 μM REP diluted with PBS, and they were cultured in the humidified 37° C. culture incubator containing 5% CO2 for 1 hour. The REP was prepared by the previously described method (Jeon W B, Park B H, Wei J, Park R W (2011) J Biomed Mater Res A 97 (2): 152-7). After culturing for 1 hour in the humidified incubator, the REP solution was aspirated, and 1×10^6 cells/ml of the isolated ORN progenitor cell suspension was placed and stored in the humidified incubator. MEM medium (Welgene, Gyeongsan, Republic of Korea) containing fresh 0.5% FBS (GE Healthcare lifesciences, Brussel, Belgium), 0.5% penicillin streptomycin (Thermo Fisher, Waltham, USA), kanamycin (SIGMA), and gentamicin (SIGMA) was replaced every 24 hours.
Next, in order to check the optimal conditions for spheroid formation, the diameter and shape of the spheroids were observed according to the seeding populations and the concentration of REP by measuring the diameter of the formed spheroids.

[3] = system: spheroid ORN progenitor cells; assay: qPCR of ORN developmental markers after differentiation of spheroid ORN progenitor cells on laminin-coated plate; type: cell-based, rat
Description: Spheroid ORN progenitor cells were differentiated and their developmental characteristics were monitored using qPCR and ICC.
Next, in order to analyze the differentiation of spheroid ORN progenitor cells in-depth, the transcriptional levels of ORN developmental markers such as ac3, omp, map2 and ncam, were analyzed by qPCR. Adenyl cyclase III (AC3), an important protein in the ORN, plays an important role in the olfactory signaling cascade. Olfactory marker protein (OMP) is also a protein found in fully matured ORNs. Microtubule associated protein 2 (MAP2) and NSE are expressed in differentiated neurons. Therefore, these markers were used as neuronal maturation markers. Neural cell adhesion molecule (NCAM) was used as a neural cell marker.

[4] = system: spheroid ORN progenitor cells; assay: Calcein assay of cell viability of spheroid ORN progenitor cells; type: cell-based, rat; conditions: plate coated with 3 μM REP
Description: Since it is essential for neural stem cells to maintain cell viability while cultured into spheroids, a calcein assay was performed to evaluate the viability of ORN progenitor cells cultured into spheroids according to the cultivation time.
Specifically, calcein assay reagent (calcein red-orange, AM; Invitrogen, Carlsbad, USA) is used to evaluate cell viability. Spheroid ORN progenitor cells were washed three times with Dulbecco's phosphate-buffered saline (DPBS; Gibco® by Life Technologies™, Waltham, USA), treated with 3 μM calcein-AM solution, and cultivated at 37° C. for 30 minutes. Cell viability in each well was quantified by measuring optical density at 517 nm with a fluorescence reader (Gemini EM; Molecular Devices, San Jose, USA). The total OD517mm value was normalized to the value measured in spheroid ORN progenitor cells on the first day, and the decrease in fluorescence intensity indicates decrease in viability according to environmental conditions and cell loss according to changes of culture media.

[5] = system: ORN differentiated from cryopreserved spheroid progenitor cells; assay: Cryopreservation, thawing and differentiation of spheroid ORN progenitor cells, calcium imaging; type: cell-based, rat; conditions: 5 day spheroids cryopreserved 35 days, thawed on laminin
Source text: Since the neural stem cells cultured into spheroids need to be stably preserved for a long period of time for efficient use, in order to determine whether or not the cell storage period is extended through cryopreservation, spheroid-cultured ORN progenitor cells were cryopreserved for 35 days and thawed to test their physiological properties.

[6] = Surface properties of coated coverslips by AFM and SEM; type: physicochemical
Description: In order to determine effects of the REP on spheroid formation, surface properties of REP-coated coverslips were observed using atomic force microscopy (AFM) and scanning electronic microscopy (SEM).
Specifically, for AFM and SEM image observation, glass coverslips were coated with 3 μM REP and 25 μg/ml laminin. To coat the coverslip with REP, 3 μM REP solution was poured onto the coverslip and incubated at 37° C. for 1 hour. Thereafter, the coverslip was washed three times with warmed autoclaved distilled water at 37° C. and dried in a hood. To prepare a laminin-coated coverslip, 25 μg/ml laminin was diluted with autoclaved distilled water and poured over the coverslip and the coverslip was stored at 37° C. overnight. Thereafter, the coverslip was washed three times with pressurized distilled water and dried with a critical point dryer (EM CPD 300; Leica, Wetzlar, Germany). AFM (XE-150; Park Systems, Suwon, Republic of Korea) was performed in non-contact mode with a scanning speed of 0.5 Hz. Before SEM observation, the coverslip was coated with osmium (Osmium plasma coater, Vacuum Devices Inc., Mito, Japan), and SEM was performed at a chamber pressure of […].

[7] = system: spheroid ORN progenitor cells; assay: qRT-PCR of stem cell markers in spheroid ORN progenitor cells; type: cell-based, rat; conditions: REP-coated plates
Description: In order to evaluate whether the spheroid-cultured ORN progenitor cells maintain a stemness, mRNA levels of stem cell markers were analyzed by quantitative real-time polymerase chain reaction (qRT-PCR). SOX2, Ki67, and nestin were used as specific marker genes for neural stem cells.
Specifically, total RNA was obtained from spheroid ORN progenitors using Trizol (Trizol® Reagent; Life technologies, Waltham, USA), and cDNA was synthesized by reverse transcription. qRT-PCR was performed under conditions of 40-45 repetitions at 95° C. for 30 sec, at 60° C. for 30 sec, and at 72° C. for 30 sec using a SYBR Green PCR Master Mix Kit (QuantiTect® SYBR® Green PCR Kit; QIAGEN, Hilden, Germany) on a Rotor-Gene Q (QIAGEN, Hilden, Germany). Primers of the sequences shown in Table 1 were purchased from GenoTeck (Daejeon, Korea) and Bionics (Daejeon, Korea). The housekeeping gene cyclophilin A was used as an internal standard.

[8] = day 3 spheroids, differentiated 72 hours on laminin-coated plate

With `COc1nccnc1CC(C)C` [IBMP, 2-isobutyl-3-methoxypyrazine, reference compound] the “activation of ORN cell a (intracellular calcium fluorescence)” value ([1]; single odorant, 100 μM) was “activated”.

In the case of `CC(C)CC(=O)O` [IVA, isovaleric acid, reference compound], the “activation of ORN cell a (intracellular calcium fluorescence)” value ([1]; single odorant, 100 μM) is reported as “activated”, the “activation of ORN cell b (intracellular calcium fluorescence)” value ([1]; single odorant, 100 μM) is reported as “activated” and the “activation of ORN cell c (intracellular calcium fluorescence)” value ([1]; single odorant, 100 μM) is reported as “activated”.

With `CC(C)=CCCC(C)=CC#N` [citralva, reference compound] the “activation of ORN cell a (intracellular calcium fluorescence)” value ([1]; single odorant, 100 μM) was “activated” and the “activation of ORN cell c (intracellular calcium fluorescence)” value ([1]; single odorant, 100 μM) was “activated”.

For laminin [reference compound], the “culture outcome on coated plate” value ([2]; plate coated with laminin) was “neurites outgrowth occurred and the cells were differentiated without spheroid culture” and the “expression level of nsetin” value ([3]; laminin group, days 3, 5 and 10) was “about 0.1 fold”.

B1: TGPG[VGRGD(VGVPG)6]20WPC (protein)
chain: TGPGVGRGDVGVPGVGVPGVGVPGVGVPGVGVPGVGVPGVGRGDVGVPGVGVPGVGVPGVGVPGVGVPGVGVPGVGRGDVGVPGVGVPGVGVPGVGVPGVGVPGVGVPGVGRGDVGVPGVGVPGVGVPGVGVPGVGVPGVGVPGVGRGDVGVPGVGVPGVGVPGVGVPGVGVPGVGVPGVGRGDVGVPGVGVPGVGVPGVGVPGVGVPGVGVPGVGRGDVGVPGVGVPGVGVPGVGVPGVGVPGVGVPGVGRGDVGVPGVGVPGVGVPGVGVPGVGVPGVGVPGVGRGDVGVPGVGVPGVGVPGVGVPGVGVPGVGVPGVGRGDVGVPGVGVPGVGVPGVGVPGVGVPGVGVPGVGRGDVGVPGVGVPGVGVPGVGVPGVGVPGVGVPGVGRGDVGVPGVGVPGVGVPGVGVPGVGVPGVGVPGVGRGDVGVPGVGVPGVGVPGVGVPGVGVPGVGVPGVGRGDVGVPGVGVPGVGVPGVGVPGVGVPGVGVPGVGRGDVGVPGVGVPGVGVPGVGVPGVGVPGVGVPGVGRGDVGVPGVGVPGVGVPGVGVPGVGVPGVGVPGVGRGDVGVPGVGVPGVGVPGVGVPGVGVPGVGVPGVGRGDVGVPGVGVPGVGVPGVGVPGVGVPGVGVPGVGRGDVGVPGVGVPGVGVPGVGVPGVGVPGVGVPGAAAVGRGDAVGVPGVGVPGVGVPGVGVPGVGVPGVGVPGAAWPC
modifications: TGPG[VGRGD(VGVPG)6]20WPC
notes: recombinant elastin-derived protein with VGVPG pentapeptide and RGD integrin receptor ligand, used as culture vessel coating
With B1 the spheroid diameter ([2]; 1 μM REP coating) was “approximately 20 μm”, the spheroid morphology ([2]; 1 μM REP coating) was “unstable spheroid morphology and cell aggregation” and the “mean diameter of spheroids” value ([2]; 1 μM REP coating, 24 hours after cell inoculation) was 24.2±0.7 μm. The “mean diameter of spheroids” value ([2]; 3 μM REP coating, 3rd day) was 77.5±3.3 μm, the “mean diameter of spheroids” value ([2]; 3 μM REP coating, 24 hours after cell inoculation) was 62.6±2.2 μm and the “mean diameter of spheroids” value ([2]; 5 μM REP coating, 5th day) was 69.4±3.6 μm. The “mean diameter of spheroids” value ([2]; 5 μM REP coating, 24 hours after cell inoculation) was 56.2±2.8 μm, the “time for ORN progenitor cells to aggregate to form spheroids” value ([2]; plate coated with REP) was at most 24 h and the “fluorescence intensity (cell viability) normalized to first day” value ([4]; 3rd day) was 1.05±0.03 times. The “fluorescence intensity (cell viability) normalized to first day” value ([4]; 10th day) was 0.087±0.01 times, the “total calcium concentration stimulated by odor” value ([1]; ORNs spheroid cultured for 3 days) was 195.7 ± 24.0 nM and the “total calcium concentration stimulated by odor” value ([1]; ORNs spheroid cultured for 5 days) was 205.3 ± 24.9 nM. The “total calcium concentration stimulated by odor” value ([1]; ORNs spheroid cultured for 10 days) was 205.4 ± 22.3 nM, the “response rate (activated cells / total cells)” value ([1]; cultivation time 3 days) was 29.9±2.5% and the “response rate (activated cells / total cells)” value ([1]; cultivation time 5 days) was 27.6±3.0%. For the same molecule, the “response rate (activated cells / total cells)” value ([1]; cultivation time 10 days) was 28.1±4.2%, the “response rate stimulated by odor, compared to day 5” value [5] was 72.3% and the “total-calcium concentration stimulated by odor, compared to day 5” value [5] was 72.5%. The “expression level of ac3” value [3, 8] was 6.3±0.7 fold, the “expression level of map2” value [3, 8] was 8.7±0.5 fold and the “expression level of nse” value [3, 8] was 9.1±0.8 fold. The “expression level of omp” value [3, 8] was 6.3±0.7 fold, the “height and roughness relative to laminin-coated surface” value ([6]; 3 μM REP vs 25 μg/ml laminin) was 23.8 times and the “roughness (AFM)” value ([6]; coverslip coated with 3 μM REP) was 148.3±15.9 nm. The “normalized relative mRNA level of Ki67” value ([7]; day 3) was 8.6±0.8 fold, the “normalized relative mRNA level of SOX2” value ([7]; day 3) was 8.4±0.8 fold and the “normalized relative mRNA level of nestin” value ([7]; day 3) was 11.7±1.1 fold. For the same molecule, the NSE expression ([7]; days 3, 5 and 10) was “approximately 0.1 fold”.

Source: patent publication US12227762B2, “Spheroid culture method for neural stem cell” (Daegu Gyeongbuk Institute of Science and Technology, priority 2019, dated 2025)
